These results are taken from patent US20240043505A1.

What all share (conditions): remark: other sources report otherwise
Experiment [1] addresses T1, SARS-CoV-2 spike receptor-binding domain (RBD) (SARS-CoV-2), P0DTC2. Briefly: indirect ELISA, RBD coated on plate, 4PL fit. (In general: ELISA stands for enzyme-linked immunosorbent assay.)
Experiment [2] has as its target receptor-binding domain (RBD) of the SARS-CoV-2 spike (S) glycoprotein (SARS-CoV-2), P0DTC2.
In experiment [3] the target is T1, SARS-CoV-2 spike receptor-binding …. Description: SPR (Biacore 3000), RBD immobilised, Nb as analyte, 1:1 Langmuir fit.

A value given as a limit tells only on which side of the number the result lay.

B1: Nb17 (VHH)
VHH: HVQLVESGGGLVQAGGSLRLSCAASGSIFSSNAMSWYRQAPGKQRELVASITSGGNADYADSVKGRFTISRDKNTVYPEMSSLKPADTAVYYCHAVGQEASAYAPRAYWGQGTQVTVSS
The molecule B1 registered an ELISA affinity in experiment [1] of 0.45 nM. Further, in experiment [2], the Buried surface area was determined as 921 Å^2.

B2: Nb21 (VHH)
VHH: QVQLVESGGGLVQAGGSLRLSCAVSGLGAHRVGWFRRAPGKEREFVAAIGANGGNTNYLDSVKGRFTISRDNAKNTIYLQMNSLKPQDTAVYYCAARDIETAEYTYWGQGTQVTVSS
For the molecule B2, the ELISA affinity in experiment [1] turned out to be 0.3 nM. In experiment [2], this molecule had a Buried surface area of 850 Å^2. Moreover, in experiment [3], the Kd is below 1 pM, the off-rate (koff) is below 1e-06 s⁻¹ and the kon worked out at 3.79e+06 M⁻¹ s⁻¹.

The term Kd denotes a measure of binding affinity in units of concentration. Higher therefore signals lower affinity. One may read the koff as a measure of how fast the partners let go of each other. Usually kon stands for the rate constant with which the complex forms. Low values mean slow association, high ones fast association.
